Source: article PMC9943657, “Structural basis for topological regulation of Tn3 resolvase”

B1: Tn3 res site III, Form I duplex (dsDNA)
DNA 1: TCGTGTCTGATATTCGATTTAAGGTACATT
DNA 2: AAATGTACCTTAAATCGAATATCAGACACG
B2: Tn3 res site III, Form II duplex (dsDNA)
DNA 1: ATTGTCTGATATTCGATTTAAGGTACA
DNA 2: ATTGTACCTTAAATCGAATATCAGACA

What was measured:
[1] = biological target: T1, Tn3 resolvase (crystallized) (Tn3 transposon, UniProt P0ADI2 1-185); assay: X-ray crystallography; Form I, ~3.4 A, one dimer-DNA complex per asymmetric unit; Crystal DNA annealed at 1 mM in TE (Tris-HCl pH 8.0, EDTA), 50 mM NaCl; footprinting: synapses crosslinked with glutaraldehyde, DNase I + 10 mM MgCl2; binding buffers and temperature not in material; settings: protein: recombinant; chain copies: 2; label: none for native; 29 bp, 1-nt 5' overhang at each end
[2] = biological target: T1, Tn3 resolvase (crystallized); assay: X-ray crystallography; Form II, ~4.0/4.5/4.0 A, two dimer-DNA complexes per asymmetric unit; Crystal DNA annealed at 1 mM in TE (Tris-HCl pH 8.0, EDTA), 50 mM NaCl; footprinting: synapses crosslinked with glutaraldehyde, DNase I + 10 mM MgCl2; binding buffers and temperature not in material; settings: protein: recombinant; chain copies: 2; label: none for native; 25 bp, 2-nt 5' overhang at each end

T1 sequence (P0ADI2 whole entry): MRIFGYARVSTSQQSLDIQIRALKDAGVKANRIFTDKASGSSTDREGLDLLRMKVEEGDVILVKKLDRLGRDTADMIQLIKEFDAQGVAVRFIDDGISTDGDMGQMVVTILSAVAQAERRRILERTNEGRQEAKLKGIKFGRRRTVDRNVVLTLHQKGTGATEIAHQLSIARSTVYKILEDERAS

Row | Binder | binding result [1] | binding result [2]
1 | B1 | binds | 
2 | B2 |  | binds
